Legend:
[1] = biological target: recombinant 0076 protein (ferritin encoded by mycma_0076) from Mycobacterium abscessus subsp. massiliense GO06 (Mycobacterium abscessus subsp. massiliense GO06); assay: dynamic light scattering; r0076 1 mg/ml in 50 mM NaH2PO4 pH 8.0, 50 mM NaCl; RH converted to mass assuming a spherical particle; 20 to 90°C
[2] = biological target: recombinant 0076 protein (ferritin encoded by mycma_0076) from Mycobacterium abscessus subsp. massiliense GO06 (Mycobacterium abscessus subsp. massiliense GO06); assay: SEC; Superdex 200 10/300 GL, 50 mM NaH2PO4 pH 8.0, 300 mM NaCl, 1 ml/min, calibrated with molecular weight standards; apparent mass

“recombinant 0076 protein (ferritin encoded by mycma_0076) from Mycobacterium abscessus subsp. massiliense GO06 (natural protein)” was tested, and the stoichiometry N [1] was 24 subunits and the stoichiometry N [2] was 24 subunits.

From publication PMC5992710
